Measurements published in patent publication US7129332.

Experiments:
[1] = biological target: EGFRvIII (mutant epidermal growth factor receptor) on NR6M cells (human) (UniProt P00533); assay: cell-based or functional assay
[2] = biological target: EGFRvIII peptide (…-biotin); assay: SPR (BIAcore), biotinylated peptide on streptavidin chip, immunotoxin injected

## MR1(Fv)-PE38 (from UniProt P11439 278-389; P11439 406-638) (scFv)
[1]
  IC50, cytotoxic activity, Experiment 1: 9.2 ng/mL
  IC50, cytotoxic activity, Experiment 2: 6.6 ng/mL
  IC50, cytotoxicity (inhibition of [3H]-leucine incorporation) on NR6M cells: 8 ng/mL
[2]
  Kd: 8 nM
